What was measured:
[1] = biological target: murine κ-opioid receptor (κOR-GFP and SNAP-κOR, two differently tagged copies co-expressed) (murine) (UniProt P33534); experiment: PhotoGate single-molecule co-localisation imaging
[2] = biological target: murine κ-opioid receptor, split GFP pair (SNAP-κOR-GFP10 and κOR-GFP11-mKate co-expressed) (murine) (UniProt P33534); experiment: split reporter

| co-localization time [1] [ms] | dimeric fraction [1] [%] | fraction of receptors in yellow spots [1] [%] | yellow fraction at a density of 14 / µm^2 [1] [%] | yellow fraction at densities of > 100 / µm^2 [1] [%] | GFP-positive fraction [2] [%] | Substance |
| --- | --- | --- | --- | --- | --- | --- |
| 476 | < 100 | 33 | 10 | 46 |  | murine κ-opioid receptor (κOR-GFP and SNAP-κOR, two differently tagged copies co-expressed) (from UniProt P33534 1-380) |
|  |  |  |  |  | 91 | murine κ-opioid receptor, split GFP pair (SNAP-κOR-GFP10 and κOR-GFP11-mKate co-expressed) (from UniProt P33534 1-380) |

Reference: doi:10.1101/2020.03.22.002394
